# Results from publication PMC9520037 (The Journal of Biological Chemistry, 2022).
# B1: SH3 domain of Fyn fused to hexahistidine tag (Fyn-SH3) (domain or fragment)
# chain: not shown
# Target: T1, MAP2c-1-467 with N-terminal histidine tag (H6-MAP2c) (rat, UniProt P15146-3 1-467, RED-tris-NTA fluorescent label on the histidine tag)
# T1 sequence: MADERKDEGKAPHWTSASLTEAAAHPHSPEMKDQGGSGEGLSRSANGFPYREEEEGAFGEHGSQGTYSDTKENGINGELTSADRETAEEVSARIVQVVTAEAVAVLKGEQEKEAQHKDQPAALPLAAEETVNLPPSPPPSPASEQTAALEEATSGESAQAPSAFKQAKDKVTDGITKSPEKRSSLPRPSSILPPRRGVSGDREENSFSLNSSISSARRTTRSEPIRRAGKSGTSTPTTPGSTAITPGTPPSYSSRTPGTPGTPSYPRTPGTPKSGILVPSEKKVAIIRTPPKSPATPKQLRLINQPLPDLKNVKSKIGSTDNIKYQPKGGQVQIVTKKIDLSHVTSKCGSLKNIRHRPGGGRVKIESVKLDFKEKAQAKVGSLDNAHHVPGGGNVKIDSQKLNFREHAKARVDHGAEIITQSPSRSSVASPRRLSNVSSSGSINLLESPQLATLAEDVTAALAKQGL
# Test: MST
binder,measurement,value
B1,Kd,22 ± 5 nM
